Results taken from patent US6740638.

Target: rat MHC class II molecules on Lewis rat splenic adherent cells (antigen presenting cells) (rat)
Assay: competition with 10 µM biotin-labeled MBP (87-99) for binding to OX-6/OX-17 positive rat splenic adherent cells, flow cytometry

Work on “MBP (87-99) peptide analogue with alanine at position 91 (91K>A)” yielded an IC50 of 21 µM.
